Our source for the stoichiometry N values is article PMC9813972.

By stoichiometry N is commonly meant a count of units in the complex or per binding partner.

The target in this test is AbTFM (A. baumannii tautomerase family member) (Acinetobacter baumannii). Kind of test: crystal structure; sitting-drop crystals at 296 K from 0.2 M ammonium nitrate, PEG 3350; protein in 20 mM HEPES-NaOH pH 6.8, 150 mM NaCl; space group H3, one subunit in the asymmetric unit, trimer by the crystallographic threefold axis.

On to “AbTFM (A. baumannii tautomerase family member) (natural protein)”, for which the stoichiometry N is 3.
